From US20100216196A1 (AJINOMOTO, published 2010)

Target: T1, DsbA protein of Escherichia coli (protein encoded by the dsbA gene) (Escherichia coli, UniProt P0AEG4 20-208, free cysteine thiols labelled with AMS (4-acetamido-4'-maleimidyl-stilbene-2,2'-disulfonate) before electrophoresis)
T1 construct: Endogenous periplasmic DsbA of E. coli BW25113, detected in cell lysates; also called disulfide oxidoreductase
T1 sequence: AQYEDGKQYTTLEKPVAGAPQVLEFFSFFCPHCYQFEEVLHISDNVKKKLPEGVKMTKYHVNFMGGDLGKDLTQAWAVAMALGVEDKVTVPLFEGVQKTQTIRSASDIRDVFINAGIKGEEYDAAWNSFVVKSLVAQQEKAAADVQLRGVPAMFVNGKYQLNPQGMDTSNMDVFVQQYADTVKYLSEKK
Experiment: AMS modification, non-reducing SDS-PAGE and Western blot with anti-DsbA serum; wild-type E. coli BW25113 exposed to 5 mM cysteine

B1: DsbB (enzyme)
chain: MLRFLNQCSQGRGAWLLMAFTALALELTALWFQHVMLLKPCVLCIYERCALFGVLGAALIGAIAPKTPLRYVAMVIWLYSAFRGVQLTYEHTMLQLYPSPFATCDFMVRFPEWLPLDKWVPQVFVASGDCAERQWDFLGLEMPQWLLGIFIAYLIVAVLVVISQPFKAKKRDLFGR
notes: Endogenous protein in the wild-type strain, seen only as the DsbA-DsbB complex band on the anti-DsbA Western blot; also called intracellular membrane protein DsbB
- binding result: binds
